Experimental findings from the Human Domainome abundance scans (Beltran et al. 2025) are described below.

± gives the uncertainty stated by the source.

B1: E3 ubiquitin-protein ligase Midline-1, residues 172 to 214; numbered along this chain, O15344 (parent)
chain: GLMCLEHEDEKVNMYCVTDDQLICALCKLVGRHRDHQVAALSE

The variants in the data set derive from B1. Briefly: abundance fitness (aPCA) (normalised: wild type 0, dead -1); higher = more abundant; growth selection in yeast, the domain comes from the species named. The conditions noted are these: Homo sapiens.
Consider GLMCLEHEDEKVNMYCSTDDQLICALCKLVGRHRDHQVAALSE, for which the abundance fitness was 0.174 ± 0.051.

Take GLMCLEHEDEKVNMYCYTDDQLICALCKLVGRHRDHQVAALSE: the abundance fitness was -0.071 ± 0.16.

For GLMCLEHEDEKVNMYCVTDDQLICALGKLVGRHRDHQVAALSE, the abundance fitness was -0.696 ± 0.074.

In the case of GLMCLEHEDEKVNMYCVTDDQLICALKKLVGRHRDHQVAALSE, the abundance fitness is -0.429 ± 0.43.

GLMCLEHEDEKVNMYCVTDDQLICALLKLVGRHRDHQVAALSE: the abundance fitness is -0.883 ± 0.12.

Take GLMCLEHEDEKVNMYCVTDDQLICALYKLVGRHRDHQVAALSE: the abundance fitness is -0.448 ± 0.35.

Regarding GLMCLEHEDEKVNMYCVTDDQLICALCKLVGRHRDHQWAALSE, the abundance fitness was -0.018 ± 0.081.

GLMCLEHEDEKVNMYCVTDDQLICALCKLVGRHRDHQNAALSE: the abundance fitness was -0.243 ± 0.15.

As to GLMCLEHEDEKVNMYCVTDDQLICALCKLVGRHRDHQIAALSE, the abundance fitness is -0.217 ± 0.11.

With GLMCLEHEDEKVNMYCVTDDQLICALCKLVGRHRDHQGAALSE, the abundance fitness is -0.134 ± 0.051.

Turning to GLMCLEHEDEKVNMYCVTDDQLICALCKLVGRHRDHQSAALSE, the abundance fitness is -0.008 ± 0.07.

Take GLMCLEHEDEKVNNYCVTDDQLICALCKLVGRHRDHQVAALSE: the abundance fitness was -0.028 ± 0.18.

As for GLMCLEHEDEKVNTYCVTDDQLICALCKLVGRHRDHQVAALSE, the abundance fitness is 0.301 ± 0.084.

GLMCLEHEDEKVNMYCVTDDQQICALCKLVGRHRDHQVAALSE: the abundance fitness came out at 0.29 ± 0.12.

For the variant GLMCLEHEDEKVNMYCVTDDQPICALCKLVGRHRDHQVAALSE, the abundance fitness came to 0.428 ± 0.094.

GLMCLEHEDEKVNMYCVTDDQTICALCKLVGRHRDHQVAALSE: the abundance fitness came out at 0.204 ± 0.075.

With GLMCLEHEDEKVNMYCVTDDQLICALCKLVGRHRDHQVAALRE, the abundance fitness is -0.127 ± 0.063.

With GLMCLEHEDEKVNMYCVTDDQLICALCKLVGRHRDHQVAALNE, the abundance fitness stood at 0.142 ± 0.092.

As to GLMCLEHEDEKVNMYCVTDDQLICALCKLVGRARDHQVAALSE, the abundance fitness is -0.591 ± 0.076.

With GLMCLEHEDEKVNMYCVTDDQLICALCKLVGRQRDHQVAALSE, the abundance fitness was -0.73 ± 0.19.

With GLMCLEHEDEKVNMYCVTDDQLICALCKLVGRTRDHQVAALSE, the abundance fitness was -0.538 ± 0.12.

For the variant GLMCLEHEDEKVNMYCVTDDQLICALCKLVGRERDHQVAALSE, the abundance fitness was -0.576 ± 0.087.

For the variant GLMCLEHEDEKVNMYCVTDDFLICALCKLVGRHRDHQVAALSE, the abundance fitness is -0.07 ± 0.28.

As to GLMCLEHEDEKVNMYCVTDDYLICALCKLVGRHRDHQVAALSE, the abundance fitness is -0.171 ± 0.14.

Consider GLMCLEHEDEKVNMYCVTDDILICALCKLVGRHRDHQVAALSE, for which the abundance fitness was -0.133 ± 0.2.

As for GLMCLEHEDEKVNMYCVTDDDLICALCKLVGRHRDHQVAALSE, the abundance fitness was -0.099 ± 0.11.

In the case of GLMCLEHEDEKVNMYCVTDDCLICALCKLVGRHRDHQVAALSE, the abundance fitness was -0.174 ± 0.074.

GLMCLEHEDEKVNMYCVTDDQLICALCKLVGRHRDHQVAILSE: the abundance fitness is -0.789 ± 0.29.

GLMCLEHEDEKVNMYCVTDDQLICALCKLVGRHRDHQVADLSE: the abundance fitness was found to be 0.031 ± 0.094.

Take GLMCLEHEHEKVNMYCVTDDQLICALCKLVGRHRDHQVAALSE: the abundance fitness was -0.107 ± 0.18.

For the variant GLMCLEHEREKVNMYCVTDDQLICALCKLVGRHRDHQVAALSE, the abundance fitness was found to be 0.027 ± 0.049.

GLMCLEHEGEKVNMYCVTDDQLICALCKLVGRHRDHQVAALSE: the abundance fitness stood at 0.031 ± 0.045.

As to GLMCLEHETEKVNMYCVTDDQLICALCKLVGRHRDHQVAALSE, the abundance fitness is -0.24 ± 0.12.

For GLMCLEHEPEKVNMYCVTDDQLICALCKLVGRHRDHQVAALSE, the abundance fitness is -0.088 ± 0.18.

Regarding GLMCLEHELEKVNMYCVTDDQLICALCKLVGRHRDHQVAALSE, the abundance fitness was 0.084 ± 0.054.

Take GLMCLEHEKEKVNMYCVTDDQLICALCKLVGRHRDHQVAALSE: the abundance fitness is -0.38 ± 0.1.

GLMCLEHEDDKVNMYCVTDDQLICALCKLVGRHRDHQVAALSE: the abundance fitness is -0.164 ± 0.12.

With GLMCLEHEDVKVNMYCVTDDQLICALCKLVGRHRDHQVAALSE, the abundance fitness was -0.414 ± 0.059.

As for GLMCLRHEDEKVNMYCVTDDQLICALCKLVGRHRDHQVAALSE, the abundance fitness was -0.297 ± 0.054.

GLMCLCHEDEKVNMYCVTDDQLICALCKLVGRHRDHQVAALSE: the abundance fitness is -0.447 ± 0.17.

Take GLMCLSHEDEKVNMYCVTDDQLICALCKLVGRHRDHQVAALSE: the abundance fitness turned out to be 0.039 ± 0.064.

For the variant GLMCLEHEDEKVNMYCVTDDQLICGLCKLVGRHRDHQVAALSE, the abundance fitness is 0.105 ± 0.046.

Take GLMCLEHEDEKVNMYCVTDDQLICVLCKLVGRHRDHQVAALSE: the abundance fitness is -0.303 ± 0.095.

As to GLMCLEHEDEKVNMYCVTDDQLICFLCKLVGRHRDHQVAALSE, the abundance fitness was -0.233 ± 0.12.

As for GLMGLEHEDEKVNMYCVTDDQLICALCKLVGRHRDHQVAALSE, the abundance fitness was -0.713 ± 0.083.

As for GLMELEHEDEKVNMYCVTDDQLICALCKLVGRHRDHQVAALSE, the abundance fitness is -0.441 ± 0.096.

Consider GLMSLEHEDEKVNMYCVTDDQLICALCKLVGRHRDHQVAALSE, for which the abundance fitness was -0.295 ± 0.085.

For the variant GLMHLEHEDEKVNMYCVTDDQLICALCKLVGRHRDHQVAALSE, the abundance fitness was -0.221 ± 0.24.

As for GLMCLEHEDEKVNMYCVTDDQLITALCKLVGRHRDHQVAALSE, the abundance fitness was -0.706 ± 0.23.

With GLMCLEHEDEKVNMRCVTDDQLICALCKLVGRHRDHQVAALSE, the abundance fitness was found to be 0.258 ± 0.047.

As for GLMCLEHEDEKVNMTCVTDDQLICALCKLVGRHRDHQVAALSE, the abundance fitness was -0.288 ± 0.086.

As for GLMCLEHEDEKVNMYCVTDDQLICALCKLVGRHRDHQVAALSG, the abundance fitness is -0.045 ± 0.078.

In the case of GLMCLEHEDEDVNMYCVTDDQLICALCKLVGRHRDHQVAALSE, the abundance fitness was -0.258 ± 0.14.

On to GLMCLEHEDEQVNMYCVTDDQLICALCKLVGRHRDHQVAALSE, for which the abundance fitness was determined as 0.158 ± 0.079.

GLMCLEHEDEGVNMYCVTDDQLICALCKLVGRHRDHQVAALSE: the abundance fitness is -0.186 ± 0.051.

For the variant GLMCLEHEDEAVNMYCVTDDQLICALCKLVGRHRDHQVAALSE, the abundance fitness was -0.107 ± 0.054.

As for GLMCLEHEDEFVNMYCVTDDQLICALCKLVGRHRDHQVAALSE, the abundance fitness is -0.132 ± 0.22.

Turning to GLMCLEHEDEKVNMYCVTKDQLICALCKLVGRHRDHQVAALSE, the abundance fitness is -0.759 ± 0.18.

GLMCLEHEDEKVNMYCVTVDQLICALCKLVGRHRDHQVAALSE: the abundance fitness is -1.02 ± 0.14.
